Reference: paper PMC9303389, “On the stability of stalled RNA polymerase and its removal by RapA” (Nucleic Acids Research, 2022)

Substrate: Nc1ncnc2c1ncn2[C@@H]1O[C@H](COP(=O)(O)OP(=O)(O)OP(=O)(O)O)[C@@H](O)[C@H]1O
Test: single-molecule magnetic trapping, stalled RNAP dissociation lifetime versus [ATP]
Type: biochemical, Escherichia coli
Conditions: saturating RapA, RNAP stalled at +20 on positively supercoiled DNA, 0.3 pN, 200 μM GTP and UTP, 8 mM MgCl2, pH 8.0, 34°C, kcat is RNAP dissociation rate at saturating RapA and ATP, not ATP hydrolysis

B1: RapA-RNAP complex (Escherichia coli K-12) (protein)
chain: PFTLGQRWISDTESELGLGTVVAVDARTVTLLFPSTGENRLYARSDSPVTRVMFNPGDTITSHDGWQMQVEEVKEENGLLTYIGTRLDTEESGVALREVFLDSKLVFSKPQDRLFAGQIDRMDRFALRYRARKYSSEQFRMPYSGLRGQRTSLIPHQLNIAHDVGRRHAPRVLLADEVGLGKTIEAGMILHQQLLSGAAERVLIIVPETLQHQWLVEMLRRFNLRFALFDDERYAEAQHDAYNPFDTEQLVICSLDFARRSKQRLEHLCEAEWDLLVVDEAHHLVWSEDAPSREYQAIEQLAEHVPGVLLLTATPEQLGMESHFARLRLLDPNRFHDFAQFVEEQKNYRPVADAVAMLLAGNKLSNDELNMLGEMIGEQDIEPLLQAANSDSEDAQSARQELVSMLMDRHGTSRVLFRNTRNGVKGFPKRELHTIKLPLPTQYQTAIKVSGIMGARKSAEDRARDMLYPERIYQEFEGDNATWWNFDPRVEWLMGYLTSHRSQKVLVICAKAATALQLEQVLREREGIRAAVFHEGMSIIERDRAAAWFAEEDTGAQVLLCSEIGSEGRNFQFASHMVMFDLPFNPDLLEQRIGRLDRIGQAHDIQIHVPYLEKTAQSVLVRWYHEGLDAFEHTCPTGRTIYDSVYNDLINYLASPDQTEGFDDLIKNCREQHEALKAQLEQGRDRLLEIHSNGGEKAQALAESIEEQDDDTNLIAFAMNLFDIIGINQDDRGDNMIVLTPSDHMLVPDFPGLSEDGITITFDREVALAREDAQFITWEHPLIRNGLDLILSGDTGSSTISLLKNKALPVGTLLVELIYVVEAQAPKQLQLNRFLPPTPVRMLLDKNGNNLAAQVEFETFNRQLNAVNRHTGSKLVNAVQQDVHAILQLGEAQIEKSARALIDAARNEADEKLSAELSRLEALRAVNPNIRDDELTAIESNRQQVMESLDQAGWRLDALRLIVVTHQ
notes: full-length RapA, N-terminal His6 tag (pQE80L, expressed in BL21(DE3)), 110 kDa; RNAP core saturated with sigma70 (rpoD) for initiation, then stalled as elongation complex on DNA; with DNA-directed RNA polymerase subunit alpha; DNA-directed RNA polymerase subunit beta; DNA-directed RNA polymerase subunit beta'; DNA-directed RNA polymerase subunit omega
  Km: 160 ± 35 µM
  kcat: 1.1 × 10^–3 ± 0.5 × 10^–5 s^–1
